This series concerns the molecule itself. The series can be described thus: SEC-MALS; purified Lip-VIN3VEL at increasing concentrations from 50 uM to 1250 uM; Superose6 Increase 10/300 column. Background: SEC sorts molecules by how far they enter the pores of the column.

Substitutions are numbered along the chain they refer to. In names and notes the source's numbering stands.

B1: Lip-VIN3VEL (residues 500-603) wild type (domain or fragment, Arabidopsis thaliana, UniProt Q9FIE3 500-603, looked up)
chain: GKQGGNKRFKSRTVSLNEKPEINNAANGVGDKDLGHIVKTIRCLEEEGHIDKSFRERFLTWYSLRATHREVRVVKIFVETFMEDLSSLGQQLVDTFSESILSKR
notes: VIN3 VEL domain construct, Arabidopsis thaliana, residues 500-603; The end of the tag is read from the name Lip-VIN3VEL; also called WT VIN3VEL; 6xHisLip-tagged VIN3VEL; source: Escherichia coli, purified; not shown: 6xHis-Lip (lipoyl solubility tag), N-terminal, kept
Regarding B1, the binding result was “binds”.

B2: Lip-VIN3VEL (residues 500-603) I575T (domain or fragment, Arabidopsis thaliana, UniProt Q9FIE3 500-603, looked up)
chain: B1 chain with I76T
notes: VIN3 VEL domain construct, Arabidopsis thaliana, residues 500-603, with I575 changed to the threonine found at the corresponding position of VRN5; The end of the tag is read from the name Lip-VIN3VEL; also called I575T mutant Lip-VIN3VEL; VIN3VEL I575T; source: Escherichia coli, purified; not shown: 6xHis-Lip (lipoyl solubility tag), N-terminal, kept
With B2, the binding result was “binds”.

The values are drawn from publication PMC7618248, “VEL-dependent polymerization maintains the chromatin association of Polycomb proteins for the switch to epigenetic silencing” (Molecular cell, 2025).
